{"source": "patent US20060051832A1", "about": "“Modified sarcosine oxidase, process for producing the same and reagent composition using the same” (Toyo Boseki Kabushiki Kaisha, priority 2002, published 2006)", "molecules": {"B1": {"name": "Arthrobacter sp. TE1826 sarcosine oxidase (SEQ ID NO:1) variant SAOM3B, K322R (Arthrobacter sp. TE1826; K322R) (protein)", "chain": "MSIKKDYDVIVVGAGSMGMAAGYYLSKQGVKTLLVDSFHPPHTNGSHHGDTRIIRHAYGEGREYVPFALRAQELWYELEKETHHKIFTKTGVLVFGPKGEAPFVAETMEAAKEHSLDVDLLEGSEINKRWPGVTVPENYNAIFEKNSGVLFSENCIRAYRELAEANGAKVLTYTPVEDFEIAEDFVKIQTAYGSFTASKLIVSMGAWNSKLLSKLNIEIPLQPYRQVVGFFECDEKKYSNTHGYPAFMVEVPTGIYYGFPSFGGCGLKIGYHTYGQKIDPDTINREFGIYPEDEGNIRKFLETYMPGATGELKSGDVCMYTRTPDEHFVIDLHPQFSNVAIAAGFSGHGFKFSSVVGETLSQLAVTGKTEHDISIFSINRPALKQKETI"}, "B2": {"name": "Arthrobacter sp. TE1826 sarcosine oxidase (SEQ ID NO:1) variant SAOM4B, V94G, E250Q (Arthrobacter sp. TE1826; E250Q/V94G) (protein)", "chain": "B1 chain with V94G, E250Q, R322K"}}, "key": {"[1]": {"test_system": "Arthrobacter sp. TE1826 modified sarcosine oxidases of Example 3B (SEQ ID NO:1 variants)", "test": "Km of modified sarcosine oxidases of Example 3B compared with unmodified", "format": "biochemical", "details": "modified vs unmodified; nearly equal to or within 1.5 times", "description": "(§1) • 100 mM Tris-HCl buffer (pH 8.0) (containing 200 mM sarcosine and 0.1% Triton X-100) • 0.1% 4-aminoantipyrine • 0.1% phenol • 25 U/mL peroxidase <Measurement Condition>\n(§2) A reaction mixture is prepared by mixing the above Tris-HCl buffer, 4-aminoantipyrine solution, phenol solution and peroxidase solution at a ratio of 5:1:2:2. The reaction mixture (1 mL) is taken to a test tube, preliminarily warmed at 37° C. for about 5 min, and 0.05 mL of an enzyme solution is added to start the reaction. The reaction at 37° C. is performed accurately for 10 min, then 2.0 mL of an aqueous solution of 0.25% SDS is added to stop the reaction, and an absorbance at 500 nm of this solution is measured. In a blind test, distilled water instead of the enzyme solution is added to the reagent mixture, and the same manipulation is followed to measure the absorbance. […] The reactivity to proline was measured as a relative ratio of activities when sarcosine in the above reagent was replaced by L-proline at the same concentration.\n(§3) Various sarcosine oxidases obtained in Example 3B and Comparative Example 1 were evaluated.\n(§4) Action on proline was calculated from a relative ratio (%) of the enzyme activity using L-proline as the substrate to the enzyme activity suing sarcosine as the substrate in the above activity measurement method. […]"}, "[2]": {"substrate": "CNCC(=O)O", "test": "Km of modified sarcosine oxidase SAOM3B", "format": "biochemical, Arthrobacter sp. TE1826", "details": "other: SAOM3B, K322R, 37° C., pH 8.0", "description": "as §1\nas §2, with “concentration. […]” for “concentration.”\nas §3, §4"}, "[3]": {"substrate": "CNCC(=O)O", "test": "Km of modified sarcosine oxidase SAOM4B", "format": "biochemical, Arthrobacter sp. TE1826", "details": "other: SAOM4B, 37° C., pH 8.0", "description": "as §1\nas §2, with “concentration. […]” for “concentration.”\nas §3, §4"}}, "note": "Residue numbers refer to the chain shown, from its start. Names and notes keep the numbering of the source."}
{"molecule": "CNCC(=O)O", "note": "[sarcosine]", "values": [{"measurement": "Km value for sarcosine relative to the Km value of the unmodified sarcosine oxidase", "setting": "[1]", "result": "≤ 1.5", "unit": "times"}]}
{"molecule": "B1", "values": [{"measurement": "Km", "setting": "[2]", "result": 4.7, "unit": "mM mM"}]}
{"molecule": "B2", "values": [{"measurement": "Km", "setting": "[3]", "result": 3.4, "unit": "mM mM"}]}
